Assay results published in publication PMC4357238, “Catalytic surface radical in dye-decolorizing peroxidase: a computational, spectroscopic and site-directed mutagenesis study” (Biochemical Journal, 2015).
Numbering of substitutions follows the chain as printed. Names may count otherwise.

What was measured:
Assay type in all cases: biochemical, Auricularia auricula-judae
[1] = substrate: CCn1c(=NN=c2sc3cc(S(=O)(=O)O)ccc3n2CC)sc2cc(S(=O)(=O)O)ccc21; assay: steady-state kinetics, absorbance increase, Michaelis-Menten fit; conditions: 0.1 mM H2O2, 10 nM enzyme, 0.1 M tartrate pH 3, 25°C
From the text: (§1) steady-state kinetics, absorbance increase, Michaelis-Menten fit on DyP (dye-decolorizing peroxidase; mature DyP-I) of Auricularia auricula-judae

[2] = substrate: COc1cccc(OC)c1O; assay: as above; conditions: 0.1 mM H2O2, 10 nM enzyme, 0.1 M tartrate pH 3, 25°C
From the text: as §1

[3] = substrate: Nc1c(S(=O)(=O)O)cc(Nc2cccc(S(=O)(=O)CCOS(=O)(=O)O)c2)c2c1C(=O)c1ccccc1C2=O; assay: steady-state kinetics, absorbance decrease, Michaelis-Menten fit; conditions: 0.1 mM H2O2, 10 nM enzyme, 0.1 M tartrate pH 3.5, 25°C
From the text: (§2) steady-state kinetics, absorbance decrease, Michaelis-Menten fit on DyP (dye-decolorizing peroxidase; mature DyP-I) of Auricularia auricula-judae

[4] = substrate: Nc1c(N=Nc2ccc(S(=O)(=O)CCOS(=O)(=O)O)cc2)c(S(=O)(=O)O)cc2cc(S(=O)(=O)O)c(N=Nc3ccc(S(=O)(=O)CCOS(=O)(=O)O)cc3)c(O)c12; assay: as above; conditions: single set of constants, 0.1 mM H2O2, 10 nM enzyme, 0.1 M tartrate pH 3, 25°C, pH 3.0
From the text: as §2

[5] = substrate: COc1ccc(CO)cc1OC; assay: steady-state kinetics, absorbance increase, Michaelis-Menten fit; conditions: single set of constants, 0.1 mM H2O2, 100 nM enzyme, 0.1 M tartrate pH 2.5, 25°C, pH 2.5
From the text: as §1

[6] = single set (high-turnover site)
[7] = two-site kinetics: high-affinity low-turnover site
[8] = single set (high-turnover site, haem channel blocked), pH 3.5
[9] = two-site kinetics: high-affinity low-turnover site, pH 3.0
[10] = single set (low-turnover site), pH 3.0
[11] = single set (low-turnover site), pH 3.5
[12] = two-site kinetics: high-affinity low-turnover site, pH 3.5

B1: DyP (dye-decolorizing peroxidase; mature DyP-I) of Auricularia auricula-judae (Auricularia auricula-judae; G230L) (protein)
chain: ATSLNTDDIQGDILVGMHKQKQLFYFFAINDPATFKTHLASDIAPVVASVTQLSNVATQPLVALNIAFSNTGLLALGVTDNLGDSLFANGQAKDATSFKESTSSWVPQFAGTGIHGVIILASDTTDLIDQQVASIESTFGSSISKLYSLSASIRPGNEAGHEMFGFLDLIAQPAINGFNTPLPGQNIVDAGVIITGATNDPITRPSWAVGGSFLAFRQLEQLVPEFNKYLLDNAPAGSGSLQARADLLGARMVGRWKSGAPIDLTPTADDPALGADAQRNNNFTYSHAGFDLGSDQSHCPFSAHIRKTRPRADLGGSLTPPNLSAGANSIMRSGIPYGPEVTSAESASNTTTQERGLAFVAYQAQLSQGFHFLQQTWADNANFPPGKTPATVGLDPIIGQNNGQPRVVNGLLPSNSSASLSIPQFVVSHGGEYFFSPPISAIGGRLSA
notes: variants made on the same plasmid
B1 gave a Km [1, 6] of 25 ± 2 µM, a kcat [1, 6] of 96 ± 2 s⁻¹ and a kcat/Km [1, 6] of 3.77e+06 ± 270000 M⁻¹ s⁻¹. It also gave a Km [2, 7] of 6.0 ± 0.4 µM, a kcat [2, 7] of 9.9 ± 0.2 s⁻¹ and a kcat/Km [2, 7] of 1.6e+06 ± 70000 M⁻¹ s⁻¹. The Km [3, 8] was 10 ± 3 µM, the kcat [3, 8] was 106 ± 9 s⁻¹ and the kcat/Km [3, 8] was 1.24e+07 ± 3e+06 M⁻¹ s⁻¹. The Km [4] was 5.8 ± 0.6 µM, the kcat [4] was 1.2 ± 0.1 s⁻¹ and the kcat/Km [4] was 217000 ± 13000 M⁻¹ s⁻¹.

B2: DyP (dye-decolorizing peroxidase; mature DyP-I) of Auricularia auricula-judae (Auricularia auricula-judae; W438S) (protein)
chain: B1 chain with L169G, W377S
notes: as for B1
Work on B2 yielded a Km [5] of 7360 ± 1270 µM, a kcat [5] of 0.23 ± 0.01 s⁻¹ and a kcat/Km [5] of 32 ± 3 M⁻¹ s⁻¹. It also gave a Km [1, 9] of 30.0 ± 0.5 µM, a kcat [1, 9] of 14.0 ± 1.0 s⁻¹ and a kcat/Km [1, 9] of 472000 ± 61000 M⁻¹ s⁻¹. It also gave a Km [2, 10] of 3560 ± 250 µM, a kcat [2, 10] of 6.4 ± 0.1 s⁻¹ and a kcat/Km [2, 10] of 1800 ± 100 M⁻¹ s⁻¹. For the same protein, the Km [3, 11] was 3.9 ± 0.6 µM, the kcat [3, 11] was 8.9 ± 0.6 s⁻¹ and the kcat/Km [3, 11] was 2.24e+06 ± 240000 M⁻¹ s⁻¹. It also gave a Km [4] of 10.6 ± 1.0 µM, a kcat [4] of 0.70 ± 0.02 s⁻¹ and a kcat/Km [4] of 68000 ± 4000 M⁻¹ s⁻¹.

B3: DyP (dye-decolorizing peroxidase; mature DyP-I) of Auricularia auricula-judae (Auricularia auricula-judae) (protein)
chain: B1 chain with L169G
notes: as for B1
Protein B3 has a Km [1, 7] of 3.1 ± 1.1 µM, a kcat [1, 7] of 7.4 ± 1.4 s⁻¹ and a kcat/Km [1, 7] of 2.37e+06 ± 420000 M⁻¹ s⁻¹. The Km [2, 7] was 6.0 ± 0.5 µM, the kcat [2, 7] was 8.0 ± 0.2 s⁻¹ and the kcat/Km [2, 7] was 1.35e+06 ± 100000 M⁻¹ s⁻¹. The Km [3, 12] was 14.0 ± 2.0 µM, the kcat [3, 12] was 32.0 ± 3.0 s⁻¹ and the kcat/Km [3, 12] was 2.23e+06 ± 200000 M⁻¹ s⁻¹. The Km [4] was 15.6 ± 2.0 µM, the kcat [4] was 4.8 ± 0.2 s⁻¹ and the kcat/Km [4] was 310000 ± 20000 M⁻¹ s⁻¹.

B4: DyP (dye-decolorizing peroxidase; mature DyP-I) of Auricularia auricula-judae (Auricularia auricula-judae; Y398S) (protein)
chain: B1 chain with L169G, Y337S
notes: as for B1
B4 showed a Km [3, 7] of 7.4 ± 2.3 µM, a kcat [3, 7] of 26.0 ± 1.9 s⁻¹ and a kcat/Km [3, 7] of 3.37e+06 ± 350000 M⁻¹ s⁻¹.
